Test results taken from patent US11160876B2, “Methods and compositions for targeting t-cell cancers” (Mayo Foundation for Medical Education and Research, priority 2016, dated 2021).
pKd: −log10 of the molar value.

Target: Abraxane (Homo sapiens, UniProt P02768)
Assay: Bio-layer interferometry (BLItz) binding affinity of OKT3 and Abraxane
Experimental: To understand the characteristics of the nanoparticles formed when binding OKT3 to Abraxane, the binding affinity of the complex was determined by a Bio-layer interferometry (BLItz) assay, which is an optical technology that uses interference of white light reflection to determine binding affinities of 2 proteins
In a BLItz assay, if the 2 proteins bind, the reflected light changes wavelength in a manner that correlates to the binding affinity of the 2 proteins. Here biotinylated OKT3 at 100 ug/ml was immobilized on a streptavidin-containing probe and exposed to Abraxane at 2 concentrations-500 ug/ml (Run 2) and 1000 ug/ml (Run 3)
In the case of the anti-human CD3 antibody (OKT3) and Abraxane, biotinylated OKT3 at 100 ug/ml was immobilized on a streptavidin-containing probe. The OKT3 bearing probe was then immersed in Abraxane at 2 concentrations, 500 ug/ml and 1000 ug/ml (Run 2 and Run 3). […] The association and dissociation constants on the proteins were calculated by the BLItz software.

muromonab-CD3 [OKT3]
binding of Abraxane to immobilized OKT3 (OKT3 bearing probe immersed in Abraxane at 500 ug/ml and 1000 ug/ml (Run 2 and Run 3)): concentration dependent manner | pKd (biotinylated OKT3 at 100 ug/ml immobilized on streptavidin-containing probe, Abraxane at 500 ug/ml and 1000 ug/ml, calculated by BLItz software, read-out: dissociation constant (Kd) of OKT3 and Abraxane): 8.65
